From patent US20250270343A1 (Alector, published 2025)
Residue numbers refer to the chain shown, from its start.

T1: mouse GPNMB endogenously expressed on B16F10 cells (mouse, UniProt Q99P91 23-574)
T1 construct: whole, on cells; also called moGPNMB
T1 sequence (looked up): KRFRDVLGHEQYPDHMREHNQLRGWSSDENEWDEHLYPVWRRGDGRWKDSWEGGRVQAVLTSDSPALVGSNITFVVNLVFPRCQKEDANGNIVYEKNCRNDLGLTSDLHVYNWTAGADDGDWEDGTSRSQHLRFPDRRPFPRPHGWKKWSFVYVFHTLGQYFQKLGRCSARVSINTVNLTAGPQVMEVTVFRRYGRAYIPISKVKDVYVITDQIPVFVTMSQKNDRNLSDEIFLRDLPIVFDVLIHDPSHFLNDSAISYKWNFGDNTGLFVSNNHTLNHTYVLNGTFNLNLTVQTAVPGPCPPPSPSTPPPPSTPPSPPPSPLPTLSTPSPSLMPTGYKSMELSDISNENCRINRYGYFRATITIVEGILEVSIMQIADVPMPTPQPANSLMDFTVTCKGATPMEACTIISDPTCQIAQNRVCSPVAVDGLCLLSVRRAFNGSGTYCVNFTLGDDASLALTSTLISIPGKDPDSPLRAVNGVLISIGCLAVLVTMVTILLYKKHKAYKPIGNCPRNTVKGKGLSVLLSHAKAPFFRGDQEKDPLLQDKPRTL

T2: soluble human GPNMB (recombinant extracellular domain) (human, UniProt Q14956 23-498)
T2 construct: also called huGPNMB; recombinant human GPNMB extracellular domain; not shown: C-terminal polyhistidine or Avi-His tag
T2 sequence: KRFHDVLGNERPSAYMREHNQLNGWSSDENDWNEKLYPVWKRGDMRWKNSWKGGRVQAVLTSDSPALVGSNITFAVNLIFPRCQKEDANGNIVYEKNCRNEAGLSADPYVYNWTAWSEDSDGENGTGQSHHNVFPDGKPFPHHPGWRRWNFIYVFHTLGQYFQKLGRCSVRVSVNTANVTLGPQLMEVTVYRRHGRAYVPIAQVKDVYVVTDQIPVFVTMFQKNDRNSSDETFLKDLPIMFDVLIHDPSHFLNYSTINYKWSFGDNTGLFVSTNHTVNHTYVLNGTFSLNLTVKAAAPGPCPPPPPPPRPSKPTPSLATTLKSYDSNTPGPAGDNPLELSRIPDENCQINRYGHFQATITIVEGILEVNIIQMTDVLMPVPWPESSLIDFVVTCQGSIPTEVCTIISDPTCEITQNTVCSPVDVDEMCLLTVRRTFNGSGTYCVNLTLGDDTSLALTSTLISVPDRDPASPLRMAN

T3: soluble cynomolgus GPNMB (recombinant extracellular domain) (cynomolgus, UniProt Q14956 23-499 (human entry), limits assumed)
T3 chain: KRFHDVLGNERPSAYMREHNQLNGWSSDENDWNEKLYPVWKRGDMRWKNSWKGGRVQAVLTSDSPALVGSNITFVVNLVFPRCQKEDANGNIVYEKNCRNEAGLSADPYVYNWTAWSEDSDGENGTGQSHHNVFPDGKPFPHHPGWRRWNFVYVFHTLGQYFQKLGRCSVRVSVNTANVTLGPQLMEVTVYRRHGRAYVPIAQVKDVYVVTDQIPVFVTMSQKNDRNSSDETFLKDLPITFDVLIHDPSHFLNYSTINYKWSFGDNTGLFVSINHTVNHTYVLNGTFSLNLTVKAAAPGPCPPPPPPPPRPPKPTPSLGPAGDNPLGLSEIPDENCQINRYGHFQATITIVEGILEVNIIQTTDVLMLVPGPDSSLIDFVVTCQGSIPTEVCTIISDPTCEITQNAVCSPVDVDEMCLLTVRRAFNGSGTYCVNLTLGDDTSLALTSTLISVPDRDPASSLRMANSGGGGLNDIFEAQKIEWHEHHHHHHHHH

B1: anti-GPNMB antibody GPN-24 (antibody, human IgG1, V domains shown)
VH: QVQLQQPGAELVKPGASVKMSCKASGYTFTSYWITWVKQRPGQGLEWIGDIHPGSGRSNYNEKFKNKATLNVDTSSSTVYMQLSSLTSEDSAVYYCARDYLFAYWGQGTLVTVSA
VL: DIQMTQSPSSLSASLGERVSLTCRASQEISGYLSWLQQKPDGTIKRLIYSTSTLDSGVPKRFSGSRSGSDYSLTISSLESEDFADYYCLQYTSSPPTFGGGTKLEIK
notes: chimeric
B2: anti-GPNMB antibody GPN-22 (antibody, human IgG1, V domains shown)
VH: QVQLQQPGAERVKPGASVKMSCKASGYTFTSYWITWVKQRPGQGLEWIGDIFPGSGSTNYHEKFKSKATLTVDTSSSTAYMQLSSLTSEDSAVYYCSRGYFGSSFSDYWGQGTSVTVSS
VL: B1 VL with A25T, T92A, G100S
notes: chimeric
B3: anti-GPNMB antibody GPN-07 (antibody, human IgG1, V domains shown)
VH: QVQLQQSGAEQVKPGASVKLSCKASGYTFTSYYMYWVKQRPGQGLEWIGEINPSNGGTYFNEKFKSKATLTVDKSSSTAYMHLSSLTSEDSAVYYCTRGGTYYAYWGQGTLVTVSA
VL: B1 VL with I29M, Y32H, S50A, T51A, T92A, S94Y, P96Y
notes: chimeric
B4: anti-GPNMB antibody GPN-30 (antibody, human IgG1, V domains shown)
VH: EVQLQQSGPELVNPGASVRISCKASGYSFTGYYMNWVKQSPEKSLEWIGEINPNTGFTTYNQNFKAKATLTVDKSSSTAYIQLKSLTSEDSAVYYCTRPSPSFDYWGQGTTLTVSS
VL: B1 VL with V19G, Y32H, S50A, T51A, T92A, S94Y, P96Y
notes: chimeric
B5: anti-GPNMB antibody GPN-26 (antibody, human IgG1, V domains shown)
VH: EVQLQQSGPELVKPGASVKISCKASGYSFTGYYMNWVRQSPEKSLEWIGEINPSTGITTYNQKFKAKATLTVDKSSNTAFMQLKSLTSEDSAVYYCARPASWFDYWGQGTLVTVSA
VL: B1 VL with Y32H, S50A, T51A, T92A, S94Y, P96Y
notes: chimeric
B6: anti-GPNMB antibody GPN-25 (antibody, human IgG1, V domains shown)
VH: B5 VH with R38K, S54G, T55S, N77S, F80Y, M81L, D104A
VL: B1 VL with L21F, T22I, Y32H, S50A, T51A, T92A, S94Y, P96Y
notes: chimeric
B7: anti-GPNMB antibody GPN-31 (antibody, human IgG1, V domains shown)
VH: B5 VH with R38K, S44N, S54N, I57G, N77T, F80Y, A97T
VL: B1 VL with Y32H, S50A, T51A, S65R, T92A, S94Y, P96Y, E105A
notes: chimeric
B8: anti-GPNMB antibody GPN-09 (antibody, human IgG1, V domains shown)
VH: B3 VH with Q11L, M34I, S66N, H82Q, T101N
VL: B1 VL with Y32H, S34G, S50A, T51A, S52L, T92A, S94Y, P96Y
notes: chimeric
B9: anti-GPNMB antibody GPN-11 (antibody, human IgG1, V domains shown)
VH: QVQLQQPGAELVKPGASVKLSCKASGYTFTSYWMHWVKQRPGQGLEWIGEINSSNGRTNYNEKFKTKATLTVDRSSSTAYMQLSSLTSEDSAVYYCARLGYYSGSPYPYYAMDCWGQGTSVTVSS
VL: DIQMTQSPASLSVSVGETVTITCRASENIYSNLAWYQQKQGKSPQLLVYAATNLADGVPSRFSGSGSGTQYSLKINSLQSEDFGSYYCQHFWNTPPTFGGGTKLEIK
notes: chimeric
B10: anti-GPNMB antibody GPN-34 (antibody, human IgG1, V domains shown)
VH: EVKLVESGGGLVQPGRSLKLSCAASGFNFYDYWMGWVRQAPGKGLEWIGEINKDSRTINYTPFLKDRFTISRDNAQNTLYLQMSKLGSEDTAIYYCAREGRVPFDYWGQGVMVTVSS
VL: DIQMTQSPSSMSVSLGDTVTIPCRASQDVGSYVNWFQQKPGKSPRHMIYRATNLADGVPSRFSGSRSGADYSLTISSLESEDVADYHCQQYAEYPLTFGSGTKLEIK
notes: chimeric

biological target: T1, mouse GPNMB endogenously expressed on …; experiment: FACS, B16F10 cells
Protocol: (§1) Recombinant anti-GPNMB antibodies of the present disclosure were examined for their ability to bind human and/or mouse GPNMB expressed on Freestyle293-huGPNMB+ or B16F10 cells, respectively. B16F10 cells are a murine melanoma cell line from a C57BL/6J mouse that endogenously express high levels of mouse GPNMB. The antibodies were also tested for their ability to bind to a human macrophage cell line (U937 cells) engineered to express human GPNMB. Cells were harvested, plated at 100,000 cells/well in a 96-well round bottom plate, and incubated in 100 μl FACS buffer (PBS containing 2% FBS, 2 mM EDTA) containing anti-GPNMB monoclonal antibodies of the present disclosure for 30 minutes on ice. Cells were then washed and incubated in 100 ul FACS buffer containing 1 μg/ml APC-conjugated anti-human IgG secondary antibody for 30 minutes in ice. Cells were washed twice in cold FACS buffer and acquired on a BD FACS Canto. Data analysis and calculation of MFI values was performed with FlowJo (TreeStar) software version 10.0.7. […]

MFI fold over background [fold]	Binder
1	B1
1	B2
1	B3
1	B4
1	B5
1	B6
1	B7
1	B8
1	B9
1.1	B10

biological target: T2, soluble human GPNMB (recombinant …); experiment: SPR Carterra, Ab immobilized
Protocol: (§2) Binding kinetics of human anti-GPNMB IgG1 antibodies of the present disclosure to human, cynomolgus, and mouse GPNMB were evaluated using a Carterra LSA instrument (Carterra, Salt Lake City, UT). […] A HC200M sensor chip (Carterra) was activated using the single channel flow cell with a 7-minute injection of a 1:1:1 mixture of 100 mM MES pH 5.5, 100 mM sulfo-NHS, 400 mM EDC (all reconstituted in MES pH 5.5; 100 μl of each mixed in vial immediately before running assay). After switching to the multi-channel array flow cell, the antibodies were injected over the activated chip in a 96-spot array for 15 minutes. The remaining unconjugated active groups on the chip were then blocked by injecting 1M Ethanolamine pH 8.5 (Carterra) for 7 minutes using the single channel flow cell.
(§3) After priming with running buffer (HBS-EP+, Teknova) with 0.5 mg/ml BSA (Sigma), the immobilized anti-GPNMB antibodies were tested for their ability to bind to several forms of recombinant GPNMB extracellular domain, including human, cynomolgus, and mouse orthologs as described above. Estimates of affinity were generated by injecting each analyte over the entire antibody array using the single channel flow cell. GPNMB analytes were diluted to 2.5, 7.4, 22, 67, 200, and 600 nM in running buffer, and injected in serial from lowest to highest concentration without regeneration. Two buffer blanks were run between each series (one species per series). Data were processed and analyzed using Kinetics high-throughput kinetics analysis software (Carterra).

Kd [nM]	koff [s⁻¹]	kon [M⁻¹ s⁻¹]	Binder
8.8	0.00057	69000	B1
120	0.0034	28000	B2
16.6	0.00029	19000	B3
5	0.00012	26000	B4
11.1	0.00027	27000	B5
11.4	0.00028	26000	B6
11.7	0.00028	26000	B7
9	0.00011	12000	B8
14.4	0.00095	69000	B9
0.4	6.3e-05	190000	B10

Biological target: T3, soluble cynomolgus GPNMB (recombinant …)
Experiment: SPR Carterra, Ab immobilized
Protocol: as §2, §3

Kd [nM]	koff [s⁻¹]	kon [M⁻¹ s⁻¹]	Binder
8.3	0.00061	77000	B1
104	0.0033	32000	B2
11.3	0.00025	22000	B3
5.1	0.00013	26000	B4
8.9	0.00027	31000	B5
7.4	0.0002	30000	B6
11.2	0.00036	32000	B7
8.4	0.00012	14000	B8
12.1	0.00095	83000	B9
0.4	0.00011	250000	B10

biological target: T1, mouse GPNMB endogenously expressed on …; experiment: FACS on B16F10 mouse melanoma cells (endogenous mouse GPNMB); single antibody concentration (not given); APC anti-human IgG secondary; MFI as fold over background
Protocol: as §1

binding result	Binder
no binding	B1
no binding	B2
no binding	B3
no binding	B4
no binding	B5
no binding	B6
no binding	B7
no binding	B8
no binding	B9
no binding	B10
